The labels stand for the following.
B1: RNF115 peptide 67-82 (E3 ubiquitin-protein ligase RNF115), 16-mer library wild type / MDM2 SWIB (MDM2 SWIB/MDM2 domain, residues 17-125) (parent complex)
chain 1: TTTHFAELWGHLDHTM
chain 2: SQIPASEQETLVRPKPLLLKLLKSVGAQKDTYTMKEVLFYLGQYIMTKRLYDEKQQHIVYCSNDLLGDLFGVPSFSVKEHRKIYTMIYRNLVVVNQQESSDSGTSVSEN
B2: PIP5K1C peptide 642-657 (Phosphatidylinositol 4-phosphate 5-kinase type-1 gamma), 16-mer library wild type / TLN1 PTB (TLN1 Phosphotyrosine-binding (PTB) domain, residues 309-401) (parent complex)
chain 1: TDERSWVYSPLHYSAQ
chain 2: GVSFFLVKEKMKGKNKLVPRLLGITKECVMRVDEKTKEVIQEWNLTNIKRWAASPKSFTLDFGDYQDGYYSVQTTEGEQIAQLIAGYIDIILK

The variants in the first assay derive from B1. In words: proteomic peptide phage display deep mutational scan (ProP-PD DMS): M13 P8 16-mer library selected against immobilised GST-tagged bait for four days (rounds), NGS of the eluted pools per day and pseudo-replica; bait immobilised on MaxiSorp plates (10 µg), library pre-cleared on GST, 2 h binding at 4 °C, five washes; one round per day, days 1-4; value from days 2 and 3.
For chain 1 M16F, the screen value is 0.000243 average fractional NGS count over selection days 2 and 3 (reads of this peptide / all reads for the bait, averaged over ….
The same measure, in the same setting: the same measure for chain 1 M16Q: 0.000223 average fractional NGS count over selection days 2 and 3 (reads of this peptide / all reads for the bait, averaged over ….
With chain 1 M16P, the screen value is 0.000227 average fractional NGS count over selection days 2 and 3 (reads of this peptide / all reads for the bait, averaged over ….
Same read-out and setting: the same measure for chain 1 M16L: 0.0016 average fractional NGS count over selection days 2 and 3 (reads of this peptide / all reads for the bait, averaged over …; for chain 1 M16V: 0.00172 average fractional NGS count over selection days 2 and 3 (reads of this peptide / all reads for the bait, averaged over ….
The same measure, in the same setting: the result for chain 1 T15Q reads 0.000103 average fractional NGS count over selection days 2 and 3 (reads of this peptide / all reads for the bait, averaged over …; that for chain 1 T15D, 0.000245 average fractional NGS count over selection days 2 and 3 (reads of this peptide / all reads for the bait, averaged over ….
Same read-out and setting: the result for chain 1 T15S reads 0.000189 average fractional NGS count over selection days 2 and 3 (reads of this peptide / all reads for the bait, averaged over ….
On to chain 1 A6E, for which the screen value was 0.000746 average fractional NGS count over selection days 2 and 3 (reads of this peptide / all reads for the bait, averaged over ….
On the same count and under the same terms, the result for chain 1 A6L reads 0.00496 average fractional NGS count over selection days 2 and 3 (reads of this peptide / all reads for the bait, averaged over …; that for chain 1 A6I, 0.000155 average fractional NGS count over selection days 2 and 3 (reads of this peptide / all reads for the bait, averaged over …; that for chain 1 H11I, 0.000552 average fractional NGS count over selection days 2 and 3 (reads of this peptide / all reads for the bait, averaged over ….
The same measure, in the same setting: the same measure for chain 1 H11A: 0.0021 average fractional NGS count over selection days 2 and 3 (reads of this peptide / all reads for the bait, averaged over …; for chain 1 H11E: 0.000714 average fractional NGS count over selection days 2 and 3 (reads of this peptide / all reads for the bait, averaged over …; for chain 1 T3P: 0.000694 average fractional NGS count over selection days 2 and 3 (reads of this peptide / all reads for the bait, averaged over ….
Consider chain 1 T3F, for which the screen value is 0.000452 average fractional NGS count over selection days 2 and 3 (reads of this peptide / all reads for the bait, averaged over ….
On the same count and under the same terms, the result for chain 1 T3M reads 0.000962 average fractional NGS count over selection days 2 and 3 (reads of this peptide / all reads for the bait, averaged over …; that for chain 1 T3E, 0.00168 average fractional NGS count over selection days 2 and 3 (reads of this peptide / all reads for the bait, averaged over …; that for chain 1 L12N, 0.000651 average fractional NGS count over selection days 2 and 3 (reads of this peptide / all reads for the bait, averaged over ….
Still for that read-out and setting: the result for chain 1 L12A reads 0.000185 average fractional NGS count over selection days 2 and 3 (reads of this peptide / all reads for the bait, averaged over …; that for chain 1 D13I, 0.00102 average fractional NGS count over selection days 2 and 3 (reads of this peptide / all reads for the bait, averaged over ….
For the variant chain 1 D13L, the screen value was 0.00105 average fractional NGS count over selection days 2 and 3 (reads of this peptide / all reads for the bait, averaged over ….
As to chain 1 D13Y, the screen value was 0.00726 average fractional NGS count over selection days 2 and 3 (reads of this peptide / all reads for the bait, averaged over ….
On the same count and under the same terms, the same measure for chain 1 D13E: 0.000754 average fractional NGS count over selection days 2 and 3 (reads of this peptide / all reads for the bait, averaged over ….
chain 1 T2H: the screen value is 0.000527 average fractional NGS count over selection days 2 and 3 (reads of this peptide / all reads for the bait, averaged over ….
On the same count and under the same terms, the result for chain 1 T2P reads 0.000494 average fractional NGS count over selection days 2 and 3 (reads of this peptide / all reads for the bait, averaged over ….
On the same count and under the same terms, the result for chain 1 T2A reads 0.00136 average fractional NGS count over selection days 2 and 3 (reads of this peptide / all reads for the bait, averaged over …; that for chain 1 T2G, 0.00135 average fractional NGS count over selection days 2 and 3 (reads of this peptide / all reads for the bait, averaged over ….
For the variant chain 1 T2V, the screen value is 0.000589 average fractional NGS count over selection days 2 and 3 (reads of this peptide / all reads for the bait, averaged over ….
Still for that read-out and setting: the same measure for chain 1 T2Q: 0.00139 average fractional NGS count over selection days 2 and 3 (reads of this peptide / all reads for the bait, averaged over …; for chain 1 H4V: 0.000238 average fractional NGS count over selection days 2 and 3 (reads of this peptide / all reads for the bait, averaged over …; for chain 1 H4S: 0.0034 average fractional NGS count over selection days 2 and 3 (reads of this peptide / all reads for the bait, averaged over ….
Regarding chain 1 H4Q, the screen value is 0.00071 average fractional NGS count over selection days 2 and 3 (reads of this peptide / all reads for the bait, averaged over ….
Same read-out and setting: the same measure for chain 1 H4K: 0.000298 average fractional NGS count over selection days 2 and 3 (reads of this peptide / all reads for the bait, averaged over ….
Same read-out and setting: the same measure for chain 1 H14P: 0.000471 average fractional NGS count over selection days 2 and 3 (reads of this peptide / all reads for the bait, averaged over ….
The same measure, in the same setting: the same measure for chain 1 H14Q: 0.000199 average fractional NGS count over selection days 2 and 3 (reads of this peptide / all reads for the bait, averaged over ….
For chain 1 H14N, the screen value was 0.00027 average fractional NGS count over selection days 2 and 3 (reads of this peptide / all reads for the bait, averaged over ….
The same measure, in the same setting: the same measure for chain 1 H14W: 0.00227 average fractional NGS count over selection days 2 and 3 (reads of this peptide / all reads for the bait, averaged over ….
chain 1 H14G: the screen value was 0.00396 average fractional NGS count over selection days 2 and 3 (reads of this peptide / all reads for the bait, averaged over ….
Same read-out and setting: the result for chain 1 H14F reads 0.00117 average fractional NGS count over selection days 2 and 3 (reads of this peptide / all reads for the bait, averaged over …; that for chain 1 G10S, 0.00615 average fractional NGS count over selection days 2 and 3 (reads of this peptide / all reads for the bait, averaged over ….
Still for that read-out and setting: the same measure for chain 1 G10W: 0.000571 average fractional NGS count over selection days 2 and 3 (reads of this peptide / all reads for the bait, averaged over …; for chain 1 G10I: 7.33e-05 average fractional NGS count over selection days 2 and 3 (reads of this peptide / all reads for the bait, averaged over ….

A further assay covers variants of B2. Described as above.
As for chain 1 A15W, the screen value was 0.00297 average fractional NGS count over selection days 2 and 3 (reads of this peptide / all reads for the bait, averaged over ….
The same measure, in the same setting: the result for chain 1 A15T reads 0.00116 average fractional NGS count over selection days 2 and 3 (reads of this peptide / all reads for the bait, averaged over ….
Still for that read-out and setting: the same measure for chain 1 A15G: 0.000489 average fractional NGS count over selection days 2 and 3 (reads of this peptide / all reads for the bait, averaged over ….
Consider chain 1 A15N, for which the screen value was 0.000427 average fractional NGS count over selection days 2 and 3 (reads of this peptide / all reads for the bait, averaged over ….
On the same count and under the same terms, the result for chain 1 A15H reads 0.000752 average fractional NGS count over selection days 2 and 3 (reads of this peptide / all reads for the bait, averaged over ….
Turning to chain 1 A15R, the screen value is 0.000696 average fractional NGS count over selection days 2 and 3 (reads of this peptide / all reads for the bait, averaged over ….
Still for that read-out and setting: the result for chain 1 A15E reads 0.00381 average fractional NGS count over selection days 2 and 3 (reads of this peptide / all reads for the bait, averaged over ….
The same measure, in the same setting: the result for chain 1 A15L reads 0.00142 average fractional NGS count over selection days 2 and 3 (reads of this peptide / all reads for the bait, averaged over …; that for chain 1 A15D, 0.00285 average fractional NGS count over selection days 2 and 3 (reads of this peptide / all reads for the bait, averaged over ….
Same read-out and setting: the same measure for chain 1 P10R: 0.000767 average fractional NGS count over selection days 2 and 3 (reads of this peptide / all reads for the bait, averaged over …; for chain 1 P10V: 0.000485 average fractional NGS count over selection days 2 and 3 (reads of this peptide / all reads for the bait, averaged over …; for chain 1 P10N: 0.00396 average fractional NGS count over selection days 2 and 3 (reads of this peptide / all reads for the bait, averaged over ….
As to chain 1 P10L, the screen value was 0.00637 average fractional NGS count over selection days 2 and 3 (reads of this peptide / all reads for the bait, averaged over ….
The same measure, in the same setting: the same measure for chain 1 P10G: 0.00227 average fractional NGS count over selection days 2 and 3 (reads of this peptide / all reads for the bait, averaged over …; for chain 1 P10Q: 0.001 average fractional NGS count over selection days 2 and 3 (reads of this peptide / all reads for the bait, averaged over ….
The same measure, in the same setting: the same measure for chain 1 P10S: 0.00055 average fractional NGS count over selection days 2 and 3 (reads of this peptide / all reads for the bait, averaged over ….
The same measure, in the same setting: the same measure for chain 1 P10F: 0.0019 average fractional NGS count over selection days 2 and 3 (reads of this peptide / all reads for the bait, averaged over …; for chain 1 P10I: 0.00026 average fractional NGS count over selection days 2 and 3 (reads of this peptide / all reads for the bait, averaged over ….
chain 1 R4K: the screen value is 0.000222 average fractional NGS count over selection days 2 and 3 (reads of this peptide / all reads for the bait, averaged over ….
Same read-out and setting: the result for chain 1 R4T reads 0.000696 average fractional NGS count over selection days 2 and 3 (reads of this peptide / all reads for the bait, averaged over …; that for chain 1 R4Q, 0.00324 average fractional NGS count over selection days 2 and 3 (reads of this peptide / all reads for the bait, averaged over …; that for chain 1 R4V, 0.00216 average fractional NGS count over selection days 2 and 3 (reads of this peptide / all reads for the bait, averaged over ….
In the case of chain 1 R4H, the screen value is 0.00121 average fractional NGS count over selection days 2 and 3 (reads of this peptide / all reads for the bait, averaged over ….
Still for that read-out and setting: the result for chain 1 R4N reads 0.00121 average fractional NGS count over selection days 2 and 3 (reads of this peptide / all reads for the bait, averaged over …; that for chain 1 R4L, 0.00628 average fractional NGS count over selection days 2 and 3 (reads of this peptide / all reads for the bait, averaged over …; that for chain 1 R4P, 0.000771 average fractional NGS count over selection days 2 and 3 (reads of this peptide / all reads for the bait, averaged over ….
Regarding chain 1 R4E, the screen value was 0.00181 average fractional NGS count over selection days 2 and 3 (reads of this peptide / all reads for the bait, averaged over ….
chain 1 R4F: the screen value is 0.00144 average fractional NGS count over selection days 2 and 3 (reads of this peptide / all reads for the bait, averaged over ….
Consider chain 1 H12E, for which the screen value is 0.00161 average fractional NGS count over selection days 2 and 3 (reads of this peptide / all reads for the bait, averaged over ….
The same measure, in the same setting: the same measure for chain 1 H12Y: 0.000256 average fractional NGS count over selection days 2 and 3 (reads of this peptide / all reads for the bait, averaged over …; for chain 1 H12R: 0.000172 average fractional NGS count over selection days 2 and 3 (reads of this peptide / all reads for the bait, averaged over ….
Still for that read-out and setting: the same measure for chain 1 H12I: 0.000636 average fractional NGS count over selection days 2 and 3 (reads of this peptide / all reads for the bait, averaged over ….
